US20220041721A1 (WUHAN YZY BIOPHARMA, published 2022)

Experiments:
human CD3 [1] = target: T1, human CD3 (human, UniProt P07766 23-207); assay: cell-based or functional assay
monkey CD3 = target: T2, monkey CD3 (monkey); assay: flow cytometry on monkey CD3 positive T cells
T2 construct: whole, on cells; also called CD3 on monkey CD3 positive T cells

human CD3 [2] = target: T1, human CD3; assay: flow cytometry on human CD3 positive T cells
Human CD38 = target: T3, Human CD38 (human, UniProt P28907 1-300); assay: flow cytometry on CD38 positive tumor cells (MM.1S or RPMI 8226)
T3 construct: whole, on cells; the assays used the protein on tumor cells

human CD3 [3] = target: T1, human CD3; assay: cell-based or functional assay; remark: listed apart in the source

Binder	Cytotoxicity EC50 against lung cancer cells H358 (human PBMC 10:1, 48 h); control with CD3 arm only, no tumor antigen arm (human CD3 [1])	EC50 (monkey CD3)	EC50 (human CD3 [2])	EC50 (Human CD38)	EC50 values of T-cell activation (CD3 and CD69 dual positive cells; human PBMC with MC/CAR target cells 5:1, 48 h) (human CD3 [3])
MS-hCD3-IC15 (bispecific antibody, human IgG1, kappa, N297Q) scFv: not shown heavy: EVKLDETGGGLVQPGRPMKLSCVASGFTFSDYWMNWVRQSPEKGLEWVAQIRNKPYNYETYYSDSVKGRFTISRDDSKSSVYLQMNNLRVEDMGIYYCTGSYYGMDYWGQGTSVTVSSASTKGPSVFPLAPSSKSTSGGTAALGCLVKDYFPEPVTVSWNSGALTSGVHTFPAVLQSSGLYSLSSVVTVPSSSLGTQTYICNVNHKPSNTKVDKKVEPKSCDKTHTCPPCPAPELLGGPSVFLFPPKPKDTLMISRTPEVTCVVVDVSHEDPEVKFNWYVDGVEVHNAKTKPREEQYQSTYRVVSVLTVLHQDWLNGKEYKCKVSNKALPAPIEKTISKAKGQPREPQVYTLPPCRDELTKNQVSLWCLVKGFYPSDIAVEWESNGQPENNYKTTPPVLDSDGSFFLYSKLTVDKSRWQQGNVFSCSVMHEALHNHYTQKSLSLSPGK light: DVVMTQTPLSLPVSLGDQASISCRSSQSLVHSNGNTYLRWYLQKPGQSPKVLIYKVSNRFSGVPDRFSGSGSGTDFTLKISRVEAEDLGVYFCSQSTHVPWTFGGGTKLEIKRTVAAPSVFIFPPSDEQLKSGTASVVCLLNNFYPREAKVQWKVDNALQSGNSQESVTEQDSKDSTYSLSSTLTLSKADYEKHKVYACEVTHQGLSSPVTKSFNRGEC	0.172 µg/mL	378 nM	194 nM		
Y150-F9-6 (bispecific antibody, human IgG1, lambda, Comparative: anti-CD38 (MOR) Fab arm and anti-CD3 scFv (SP34)-Fc fusion peptide; 150 is used) scFv: EVQLVESGGGLVQPKGSLKLSCAASGFTFNTYAMNWVRQAPGKGLEWVARIRSKYNNYATYYADSVKDRFTISRDDSQSILYLQMNNLKTEDTAMYYCVRHGNFGNSYVSWFAYWGQGTLVTVSSGGGGSGGGGSGGGGSQAVVTQESALTTSPGETVTLTCRSSTGAVTTSNYANWVQEKPDHLFTGLIGGTNKRAPGVPARFSGSLIGDKAALTITGAQTEDEAIYFCALWYSNLWVFGGGTKLTVLGDGDGSDKTHTCPPCPAPEFEGGPSVFLFPPKPKDTLMISRTPEVTCVVVDVSHEDPEVKFNWYVDGVEVHNAKTKPREEQYNSTYRVVSVLTVLHQDWLNGKEYKCKVSNKALPASIEKTISKAKGQPREPQVCTLPPSRDELTKNQVSLSCAVKGFYPSDIAVEWESNGQPENNYKTTPPVLDSDGSFFLVSKLTVDKSRWQQGNVFSCSVMHEALHNHYTQKSLSLSPGK heavy: not shown light: DIELTQPPSVSVAPGQTARISCSGDNLRHYYVYWYQQKPGQAPVLVIYGDSKRPSGIPERFSGSNSGNTATLTISGTQAEDEADYYCQTYTGGASLVFGGGTKLTVLGQPKAAPSVTLFPPSSEELQANKATLVCLISDFYPGAVTVAWKADSSPVKAGVETTTPSKQSNNKYAASSYLSLTPEQWKSHRSYSCQVTHEGSTVEKTVAPTECS		130 nM	111 nM	27.1 nM	
Y150-F9-11 (bispecific antibody, human IgG1, kappa, Anti-CD38 (MOR) Fab arm with CL Lc1 and anti-CD3 scFv (VH2a/VL5)-Fc fusion peptide) scFv: QVQLVESGGGVVQPGRSLRLSCAASGFTFSTYAMNWVRQAPGKGLEWVARIRSKYNNYATYYADSVKDRFTISRDDSKNTLYLQMNSLRAEDTAVYYCARHGNFGNSYVSWFAYWGQGTLVTVSSGGGGSGGGGSGGGGSQTVVTQEPSLTVSPGGTVTLTCRSSTGAVTTSNYANWVQQKPGQAPRGLIGGTNKRAPGVPARFSGSLLGGKAALTLSGVQPEDEAEYYCALWYSNLWVFGGGTKVEIKGRGRGSDKTHTCPPSPAPPVAGPSVFLFPPKPKDTLMISRTPEVTCVVVDVSHEDPEVQFNWYVDGVEVHNAKTKPREEQFNSTFRVVSVLTVVHQDWLNGKEYKCKVSNKGLPAPIEKTISKTKGQPREPQVCTLPPSRDELTKNQVSLSCAVKGFYPSDIAVEWESNGQPENNYKTTPPVLDSDGSFFLVSKLTVDKSRWQQGNVFSCSVMHEALHNHYTQKSLSLSPGK heavy: not shown light: DIELTQPPSVSVAPGQTARISCSGDNLRHYYVYWYQQKPGQAPVLVIYGDSKRPSGIPERFSGSNSGNTATLTISGTQAEDEADYYCQTYTGGASLVFGGGTKLTVLRTVAAPSVFIFPPSDEQLKSGTASVVCLLNNFYPREAKVQWKVDNALQSGNSQESVTEQDSKDSTYSLSSTLTLSKADYEKHKVYACEVTHQGLSSPVTKSFNRGEC		461 nM	437 nM	106 nM	0.0835 nM
